Measurements published in PMC9293771.

Molecular target: N-terminally truncated N-terminally His6-tagged human aspartate/asparagine-β-hydroxylase (His6-AspH315–758) (human) (UniProt Q12797)
Chain of UniProt Q12797 (Q12797 315-758): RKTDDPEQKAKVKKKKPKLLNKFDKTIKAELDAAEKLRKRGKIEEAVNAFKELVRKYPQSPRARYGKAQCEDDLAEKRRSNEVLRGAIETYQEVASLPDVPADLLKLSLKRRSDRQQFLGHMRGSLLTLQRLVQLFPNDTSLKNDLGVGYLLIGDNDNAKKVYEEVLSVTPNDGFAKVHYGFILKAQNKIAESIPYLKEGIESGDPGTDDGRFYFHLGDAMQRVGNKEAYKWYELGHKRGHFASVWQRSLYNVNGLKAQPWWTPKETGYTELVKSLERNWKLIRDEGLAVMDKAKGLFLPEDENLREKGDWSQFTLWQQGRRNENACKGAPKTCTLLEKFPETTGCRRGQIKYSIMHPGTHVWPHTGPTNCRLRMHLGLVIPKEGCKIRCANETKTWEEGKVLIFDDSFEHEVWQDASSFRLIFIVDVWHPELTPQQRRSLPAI

Row | Km of AspH for the peptide substrate, steady-state kinetics of hydroxylation by SPE-MS (0.1 μM His6-AspH315–758, 50 mM Hepes, pH 7.5, 20 °C) | Substance
1 | 47 μM | hLYPD6B-CP65–83, thioether-bridged cyclic peptide derived from the LU domain of human LYPD6B (from UniProt Q8NI32 65-83)
2 | 7.9 μM | hHMCN1-CP5164–5182, thioether-bridged cyclic peptide derived from EGFD2 of human hemicentin-1 (from UniProt Q96RW7 5164-5182)
